Data taken from patent publication US10670612B2, “Immunoassay standards and measurement of clinical biomarkers using intra-assay calibration standards” (Saladax Biomedical, Inc., priority 2010, dated 2020).
Ends that are not written are not given here.

Experiment: Dynamic light scattering
Assay type: physicochemical
Settings: phosphate buffer pH 7.4, 25° C.
Procedure: One set was prepared at 1.0 mg/ml, the second set was prepared at 0.10 mg/ml, and stored at room temperature. Peptides were dissolved by vortexing for 1 min, and centrifuged in a microcentrifuge for 5 min at 14,000 rpm, at room temperature. For Aβ42 samples (MSD), vials containing 0.1 mg peptide were suspended in 1.0 ml buffer, and treated as above. A volume (200 μl) of each centrifuged 1.0 mg/ml stock was transferred to a 0.5 ml polypropylene tube, and provided for NMR analysis.
The absorbance spectra of all samples were recorded (220-750 nm) using a NANODROP® ND-1000 instrument, and blanked against the buffer. Dynamic light scattering analysis was conducted on the peptides in a 384 well polystyrene plate (CORNING®, type 3540) with a Wyatt DLS DynaPro plate reader. Data collection and analysis was completed using software from the manufacturer (DYNAMICS, versions 7.0.0.94 and 7.0.1.12). Each peptide was evaluated in triplicate with 30 μl loaded per well, and overlaid with 5 μl mineral oil, to minimize evaporation. Buffer blanks were also included in the analysis for comparison. After loading the plate, a transparent adhesive sealing tape cover was applied to the plate and the plate was centrifuged for 2 min at 1000 rpm. Each sample on the plate was read 30 times, 5 sec per acquisition, maintaining a temperature of 25° C. Data sets were collected on both the 1.0 mg/ml and 0.10 mg/ml samples over the course of 27 days. The adhesive cover was removed to read the samples in the plate reader, and used to cover the plate between readings over the 27 day time course.
FIGS. 7A through 7F show dynamic light scattering data. In FIGS. 7A-F, the full length Aβ42 peptide was subjected to DLS analysis and compared to four representative modified peptides. […] FIG. 7a represents the raw data accumulated for all five peptides. Shown is the intensity autocorrelation versus time. […] FIGS. 7b-7f depict the percent mass versus the radius of the peptides. Monomeric peptides would be represented by a larger percent mass at the smaller radius size.

## DAEFRHDSGYEVHHQKEERPIGLMVGGVVIA (not fully specified) [GS#4, native Aβ42 amino acids (1-16)-EERP-native Aβ42 amino acids (32-42)]
DLS Peak 1
  % Intensity: 3.8%
  % Mass: 97.7%
  % Pd: 3.2%
  Mw-R: 6.0 kDa
  Radius: 1.3 nm
DLS Peak 2
  % Intensity: 0.6%
  % Mass: 0.2%
  % Pd: 0.0%
  Mw-R: 225.0 kDa
  Radius: 6.0 nm
DLS Peak 3
  % Intensity: 5.2%
  % Mass: 0.0%
  % Pd: 4.5%
  Mw-R: 7527.0 kDa
  Radius: 27.0 nm
DLS Peak 4
  % Intensity: 25.1%
  % Mass: 0.2%
  % Pd: 4.3%
  Mw-R: 283287.0 kDa
  Radius: 127.0 nm
